Test results from patent US20060078875A1, “Genetic selection of small molecule modulators of protein-protein interactions” (The Penn State Research Foundation, priority 2004, published 2006).
Ends that are not written are not given here.

Tests used:
ribonucleotide reductase = target: T1, ribonucleotide reductase (Mus musculus, UniProt P07742+P11157); assay: RTHS β-galactosidase (lacZ) assay, ribonucleotide reductase fusion in strain SNS126; type: cell-based, murine; details: for Effect on the lacZ reporter upon arabinose induction: arabinose induction of peptide expression; for Effect on the lacZ reporter upon arabinose induction / lacZ repression relief: 100 μM IPTG; for lacZ repression relief: background level of peptide expression
T1 construct: expressed in transfected cells; host or cells: E. coli strain SNS126 (integrated via pAH68)
T1 sequence (P07742 1-792): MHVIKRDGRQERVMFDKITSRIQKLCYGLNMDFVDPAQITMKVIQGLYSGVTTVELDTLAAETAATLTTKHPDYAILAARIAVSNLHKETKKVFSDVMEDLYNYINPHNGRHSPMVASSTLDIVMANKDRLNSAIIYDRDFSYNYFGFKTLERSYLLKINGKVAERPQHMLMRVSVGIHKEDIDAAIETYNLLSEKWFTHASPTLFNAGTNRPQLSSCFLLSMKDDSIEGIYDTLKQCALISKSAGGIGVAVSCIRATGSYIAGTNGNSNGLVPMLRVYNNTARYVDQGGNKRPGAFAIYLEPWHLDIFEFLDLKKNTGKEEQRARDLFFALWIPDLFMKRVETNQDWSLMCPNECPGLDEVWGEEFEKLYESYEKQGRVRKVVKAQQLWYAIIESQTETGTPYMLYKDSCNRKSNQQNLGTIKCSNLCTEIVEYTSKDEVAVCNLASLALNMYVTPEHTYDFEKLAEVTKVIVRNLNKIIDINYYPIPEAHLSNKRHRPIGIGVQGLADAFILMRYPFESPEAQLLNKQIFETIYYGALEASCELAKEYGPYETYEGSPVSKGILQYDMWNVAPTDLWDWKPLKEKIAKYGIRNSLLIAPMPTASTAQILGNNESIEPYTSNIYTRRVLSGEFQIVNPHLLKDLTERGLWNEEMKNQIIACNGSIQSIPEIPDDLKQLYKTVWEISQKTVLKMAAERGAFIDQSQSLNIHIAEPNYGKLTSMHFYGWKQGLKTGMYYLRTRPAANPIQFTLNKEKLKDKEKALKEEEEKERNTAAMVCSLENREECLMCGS
T1 sequence (P11157 1-390): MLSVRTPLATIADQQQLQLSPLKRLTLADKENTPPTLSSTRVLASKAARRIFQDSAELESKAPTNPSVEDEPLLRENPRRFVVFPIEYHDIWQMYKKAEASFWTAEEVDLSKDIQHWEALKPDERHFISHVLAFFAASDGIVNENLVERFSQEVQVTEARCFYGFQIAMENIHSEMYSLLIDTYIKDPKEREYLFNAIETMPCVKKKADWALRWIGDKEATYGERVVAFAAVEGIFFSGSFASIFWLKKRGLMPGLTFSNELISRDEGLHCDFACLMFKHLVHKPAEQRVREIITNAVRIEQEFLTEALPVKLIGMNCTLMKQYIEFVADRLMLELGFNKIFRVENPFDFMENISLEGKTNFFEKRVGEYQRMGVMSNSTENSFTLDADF
From the text: FIG. 4 has two graphs (A and B) of β-galactosidase assays showing the effect of linear peptide inhibitors on the oligomeric state of HIV-1 protease and ribonucleotide reductase.
Positive (unrepressed strain) and negative (SICLOPPS control plasmid) controls are provided as reference points. […] FIG. 7C is a graph of competition ELISA results that compare the binding affinity of the four linear peptides with P8 control. FIG. 7D illustrates an exemplary solid phase synthesis of cyclic peptides. First, an activated disulfide resin is prepared through the protection of the thiol group of 3-mercaptopropionic acid, followed by coupling to an amino-PEGA resin. Next, a linear peptide is attached via a cysteine residue and cyclized with 1-ethyl-3-(3′-dimethylaminopropyl)carbodiimide (EDC) and 1-hydroxy-7-azabenzotriazole (HOAt) in DMF. Finally, reductive cleavage with tris-2-carboxyethylphosphine (TCEP) releases the cyclized peptide.
pTHCP30. […] ribonucleotide reductase subunit R1 was PCR amplified from a Bacuolovirus expression plasmid [Caras et al. (1985) J. Biol. Chem. 260:7015-7022] and cloned into SalI and SacI sites on pTHCP14, and subunit R2 was PCR amplified from pET3a-R2 and cloned onto pTHCP14-R1 plasmid at XhoI and KpnI sites [Mann et al. (1991) Biochemistry 30:1939-1947].
Overlapping oligonucleotides encoding […] (methionine plus eight R2 subunit C-terminal residues) (SEQ ID:15) were cloned into NcoI and XbaI sites on arabinose expression plasmid pAR [Perez-Perez et al. (1995) Gene 158:141-142].
Towards this goal, both enzyme complexes were probed with known linear peptidic inhibitors. These peptides are a C-terminal hexapeptide (FIG. 4A, pHIV16) for HIV protease that inhibits the essential β-sheet interactions [Schramm al. (1996) Antiviral Res. 30:155-170], and a heptapeptide for ribonucleotide reductase (pTHCP35, FIG. 4B) that competes with binding between subunits mR1 and mR2 [Yang et al. (1990) FEBS Lett. 272:61-64].
To address non-specific effects of selectants on host growth rates, three of the selective peptides (RR93, RR127, RR130) and the less discriminating RR133 were subjected to quantitative expression studies using the lacZ reporter of the RTHS. […] These studies necessitated in vitro analysis to decipher the inhibition mechanism of these four selectants.

[1] = target: T2, ribonucleotide reductase large subunit (mR1) (Mus musculus, UniProt P07742); assay: Immobilized peptide binding/competition ELISA with mR1; set-up: species or system murine; details: P8 immobilized on maleimide plates
T2 construct: made in house; host or cells: E. coli BL21(λDE3) Rosetta, pET28a-MR1
T2 sequence (P07742 1-792): T1 sequence (P07742 1-792)
Protocol: (§1) FIG. 8B provides the results of an immobilized P8 ELISA.
(§2) Two variations of solid phase binding assays were used for analyzing the binding of peptide inhibitors to ribonucleotide reductase subunits: i) protein competition ELISA where peptides were competing with mR1 for binding to immobilized mR2, ii) binding and competition ELISA with covalently immobilized ligands. In general, the solid phase assays were performed in microtiter plates (MaxiSorp, Nunc) or strip units (Reacti-Bind™ Maleimide Activated Clear Strip Plates, Pierce) involving continuous agitation in Junior Orbit Shaker (Lab-line Instruments) at medium speed during all of the incubation steps. Sample volumes were 100 μL, unless specified otherwise. Following coating, blocking step was conducted by incubating pre-loaded wells with 5% bovine serum albumin in PBS for 1 h at room temperature. Wash procedures between any two successive incubations involved three washes with 200 μL of 0.5% Tween-20 in PBS (PBST), with the second wash involving a 5 min incubation. Detection of His-tagged proteins was performed with Ni·NTA-HRP conjugate (Qiagen) according to the manufacturer instructions.
(§3) Peptides (200 nmol per well) in 10% DMF/50 mM Tris·HCl (pH 7.5) with 1 mM TCEP were reacted for 2 h at room temperature with maleimide-derivatized polystyrene wells. The unreacted sites were blocked by incubating wells with 5 μM cysteine in 50 mM Tris·HCl (pH 7.5) for 30 min. Following washing and blocking steps, the wells were incubated with His-tagged mR1 or mR2 in the presence or absence of inhibitors. The retained protein was detected via Ni·NTA-HRP conjugate.
(§4) To determine the mechanism of action of the four identified sequences an alternative assay format was devised (FIG. 8A), where a peptide with a residual activity in its immobilized form can serve as a specific ligand for receptor capture in both binding and competition ELISA. The success of such an assay relies on both efficient peptide immobilization strategy and sufficient level of affinity, uncompromised by this display strategy. The peptide immobilization becomes feasible through implementation of a cysteine, a nucleophile used in splicing, as a universal chemoselective handle allowing covalent attachment strategy through a suitable electrophile. Chemoselective attachment of such peptides on appropriately derivatized surfaces should both display the small molecules for detection with a suitable protein receptor and allow binding site competition analysis, not unlike in a traditional immunosorbent format.

[2] = target: T3, ribonucleotide reductase small subunit (mR2) (Mus musculus, UniProt P11157); assay: Immobilized c-RR130 binding/competition ELISA with mR2; set-up: species or system murine; details: data not shown
T3 construct: made in house; host or cells: E. coli BL21(λDE3), pET28a-MR2
T3 sequence (P11157 1-390): T1 sequence (P11157 1-390)
Protocol: as §1, §2, §3, §4

ATIC homodimer = target: T4, ATIC homodimer (Gallus gallus, UniProt P31335); assay: ATIC RTHS ranking by spotting serial dilutions on selective media; type: cell-based; details: cyclic peptides in order of biological activity (1 = most active)
T4 construct: expressed in transfected cells; host or cells: E. coli RTHS strain with the ATIC fusion integrated on the chromosome
T4 sequence (P31335 1-593): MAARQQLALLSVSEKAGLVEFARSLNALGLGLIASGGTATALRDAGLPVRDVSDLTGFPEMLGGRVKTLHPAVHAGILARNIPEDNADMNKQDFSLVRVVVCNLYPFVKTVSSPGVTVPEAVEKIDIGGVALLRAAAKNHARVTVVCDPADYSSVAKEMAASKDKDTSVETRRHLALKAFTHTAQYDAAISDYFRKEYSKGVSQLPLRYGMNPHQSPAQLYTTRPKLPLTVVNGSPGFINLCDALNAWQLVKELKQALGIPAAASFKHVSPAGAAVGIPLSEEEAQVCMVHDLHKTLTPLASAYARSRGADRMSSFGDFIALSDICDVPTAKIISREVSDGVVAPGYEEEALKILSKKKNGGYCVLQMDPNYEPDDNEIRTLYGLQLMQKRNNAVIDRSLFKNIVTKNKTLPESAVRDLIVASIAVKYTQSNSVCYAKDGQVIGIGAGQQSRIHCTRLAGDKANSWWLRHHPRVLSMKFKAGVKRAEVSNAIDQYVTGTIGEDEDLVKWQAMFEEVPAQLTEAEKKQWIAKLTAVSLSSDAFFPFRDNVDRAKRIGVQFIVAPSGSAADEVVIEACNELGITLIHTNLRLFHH
Protocol: ATIC was cloned as a fusion with the bacteriophage 434 repressor DNA binding domain (into pTHCP16, FIG. 1B) such that expression of the repressor-ATIC fusion placed under control of an isopropyl β-D-thiogalactoside (IPTG) inducible promoter. […] In order to improve selection conditions, a new RTHS strain was constructed by integrating the ATIC fusion onto the chromosome. The level of IPTG giving optimal repression was determined to be 50 μM by β-galactosidase assays.
The first SICLOPPS library transformed into the selection strain encoded a hexapeptide with five random residues and a cysteine nucleophile. Approximately 10^7 transformants were plated onto histidine-free minimal media supplemented with arabinose, (inducer for SICLOPPS) 3-amino-1,2,4-triazole (3-AT, competitive inhibitor of HIS3 product) and kanamycin at a density of 10^6 per plate (100×15 mm). The plates were incubated until colonies were readily visible (approximately one in 10^5). A second library encoding an octapeptide with five random residues and an invariable SGW motif was also tested (not shown). Around 200 colonies were picked and screened for arabinose dependent growth advantage and IPTG dependent inhibition of growth to eliminate false positives. The expected phenotype was further confirmed by isolating and retransforming the selected SICLOPPS plasmids into the selection strain. The 14 remaining cyclic peptides were then ranked for activity by spotting serial dilutions of the corresponding cells onto selective media, allowing the conferred growth advantage to be compared at each dilution level.
SICLOPPS libraries were transformed into E. coli strains containing integrated reporter and repressor constructs. Transformants were washed with minimal media A and plated on minimal media A supplemented with 13 μM L-(+)-arabinose, 2.5 mM 3-amino-1,2,4-triazole, 25 μM kanamycin and 50 μM IPTG. After incubation at 37° C. for 3-4 days, surviving colonies were restreaked onto the same media with and without arabinose. Plasmids from selected strains whose growth depended on the presence of arabinose were retransformed into the original selection strain and checked for phenotype retention. The variable insert regions on SICLOPPS plasmids were PCR-amplified, and their DNA sequence determined.

avian ATIC (AICAR Tfase) = target: T5, avian ATIC (AICAR Tfase) (Gallus gallus, UniProt P31335); assay: AICAR Tfase assay
T5 sequence (P31335 1-593): T4 sequence (P31335 1-593)
Protocol: All assays were performed using a Varian Cary 100 Spectrometer. All reaction mixtures were 500 μl in volume and carried out in 1 cm pathlength quartz cuvettes at 25° C. The enzyme used in all of the inhibition studies was avian ATIC, fused to a N-terminal 6× histidine tag to facilitate purification. […] The peptides were dissolved in DMSO to a final concentration of 2.5 mM.
84 nM of ATIC, 50 μM of 10-f-THF and various quantities of inhibitor were mixed in the assay buffer (32.5 mM Tris-HCl, 25 mM KCl, pH 7.4). The mixture was incubated at 25° C. for 2 min before initiating the reaction by addition of 20 μM AICAR. The reaction was monitored by measuring the increase in absorbance due to formation of tetrahydrofolate at 298 nm.
The peptides were assumed to be competing with f-10-THF, which binds to ATIC and stabilizes its dimerization.

With “GVRFF (cyclic, SICLOPPS-expressed; Ribonucleotide reductase inhibitor peptide) [RR127]” the “Effect on the lacZ reporter upon arabinose induction” value (“Effect” for short) (ribonucleotide reductase) was “further enhanced”, the lacZ repression relief (ribonucleotide reductase) was “observable repression relief” and the “Disruption of / competition with immobilized P8·mR1 complex” value (“Disruption of / competition” below) [1] was “none”. For the same substance, the “Competition with the c-RR130·mR2 complex” value [2] was “competed”.
For “HRYVF (cyclic, SICLOPPS-expressed; Ribonucleotide reductase inhibitor peptide) [RR133]”, the “Effect” value (ribonucleotide reductase) was “further enhanced”, the lacZ repression relief (ribonucleotide reductase) was “observable repression relief” and the “Disruption of / competition” value [1] was “none”. The “Competition with the c-RR130·mR2 complex” value [2] was “competed”.
M L L I V C (MLLIVC) [c-25] was tested, and the “Activity Rank” value (ATIC homodimer) was 3.
In the case of MSFTLDADF [pTHCP35, reference compound], the “Repression of the lacZ reporter” value (ribonucleotide reductase; peptide co-expressed with ribonucleotide reductase fusion) is reported as “relieved repression”.
For P V L L L C (PVLLLC) [c-26], the “Activity Rank” value (ATIC homodimer) was 3.
With “R F F I C C (RFFICC; also: cyclic peptide, ring type not given here) [c-4]” the “Activity Rank” value (ATIC homodimer) was 2.
With R I L Q L C (RILQLC) [c-8] the “Activity Rank” value (ATIC homodimer) was 2.
For R I L V L C (RILVLC) [c-5], the “Activity Rank” value (ATIC homodimer) was 3.
RYFNVC [l-1a, RYFNVC] was tested, and the Ki (avian ATIC (AICAR Tfase)) was 142 ± 22.5 µM.
“RYYNV (cyclo(RYYNV); not fully specified) [RR130]” was tested, and the “Effect” value (ribonucleotide reductase) was “arabinose-dependent repression”, the lacZ repression relief (ribonucleotide reductase) was “observable repression relief” and the “Disruption of / competition” value [1] was “none”. For the same substance, the “Competition with the c-RR130·mR2 complex” value [2] was “competed”.
For S M M V L C (SMMVLC) [c-15], the “Activity Rank” value (ATIC homodimer) was 3.
With T V L M F C (TVLMFC) [c-6] the “Activity Rank” value (ATIC homodimer) was 3.
WMFLNVSG [l-151] showed a Ki (avian ATIC (AICAR Tfase)) of 173 ± 28.4 µM.
With “YTWSY (cyclo(YTWSY); not fully specified) [RR93]” the “Effect” value (ribonucleotide reductase) was “further enhanced” and the lacZ repression relief (ribonucleotide reductase) was “observable repression relief”.
